B2: soluble BTN3A1 ectodomain (IgV-IgC), homodimer (ligand)
chain: not shown
notes: C-terminal biotin ligase (AviTag) and His6 tags; Analyte or immobilised ligand in SPR; streptavidin-PE tetramer in flow cytometry; also called BTN3A1 ectodomain homodimer; full-length BTN3A1 ectodomain

Assay [1] addresses T1, BTN2A1 ectodomain homodimer, disulfide-linked (C-terminal Cys247, acidic or basic leucine zipper) (human, UniProt Q7KYR7 29-248; Q7KYR7 29-248).
T1 construct: Biotinylated and immobilised on a streptavidin chip in SPR; also called immobilized BTN2A1 homodimer; immobilised BTN2A1 ectodomain homodimer; not shown: linker and acidic leucine zipper; linker and basic leucine zipper
T1 sequence 1: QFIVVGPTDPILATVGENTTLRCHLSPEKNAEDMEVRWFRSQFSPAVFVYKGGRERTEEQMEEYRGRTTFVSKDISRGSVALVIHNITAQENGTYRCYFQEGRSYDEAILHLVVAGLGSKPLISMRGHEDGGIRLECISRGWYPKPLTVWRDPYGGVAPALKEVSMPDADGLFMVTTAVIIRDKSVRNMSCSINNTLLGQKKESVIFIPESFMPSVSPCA
T1 sequence 2: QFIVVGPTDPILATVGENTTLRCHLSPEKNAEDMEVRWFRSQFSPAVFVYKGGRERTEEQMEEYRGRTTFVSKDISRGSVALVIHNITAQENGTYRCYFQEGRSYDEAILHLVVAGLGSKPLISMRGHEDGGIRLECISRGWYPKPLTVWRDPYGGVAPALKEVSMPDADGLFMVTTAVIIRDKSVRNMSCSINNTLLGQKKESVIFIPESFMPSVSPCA
As to the kind of experiment: SPR; BTN2A1 ectodomain homodimer immobilised, soluble BTN2A1 ectodomain injected.

Assay [2] has as its target B2. As to the kind of experiment: SPR, equilibrium; BTN3A1 homodimer immobilised, soluble monomeric BTN2A1 ectodomain injected. A general note: Surface plasmon resonance follows binding to a sensor surface in real time, without labels.
Description: (§1) SPR experiments were conducted at 25° C. on a Biacore T200 instrument (GE Healthcare) using 10 mM HEPES-HCl (pH 7.4), 150 mM NaCl, 3 mM EDTA, and 0.05% Tween 20 buffer. Biotinylated BTN ectodomains were immobilized to 1,500-2,000 resonance units (RU) on a Biacore sensor chip SA pre-immobilized with streptavidin. Soluble BTN molecules or G115 γδTCR were two-fold serially diluted and simultaneously injected over test and control surfaces at a rate of 30 μl/min. After subtraction of data from the control flow cell (BTN1A1) and blank injections, interactions were analyzed using Biacore T200 evaluation software (GE Healthcare), Scrubber (Biologic) and Prism version 9 (GraphPad), and equilibrium dissociation constants were derived at equilibrium.
Assay [3] addresses T1, BTN2A1 ectodomain homodimer, …. As to the kind of experiment: SPR, equilibrium; disulfide-linked BTN2A1 homodimer immobilised, soluble BTN3A1 ectodomain injected.
Description: as §1
Assay [4] shares this target. As to the kind of experiment: SPR, equilibrium; BTN2A1 homodimer immobilised, soluble BTN3A1 IgV domain injected.
Description: as §1
For assay [5], the target named is B2. As to the kind of experiment: SPR, soluble monomeric BTN3A1 IgV domain over immobilised BTN3A1 homodimer.
Description: SPR experiments were conducted at 25° C. on a Biacore T200 instrument (GE Healthcare) using 10 mM HEPES-HCl (pH 7.4), 150 mM NaCl, 3 mM EDTA, and 0.05% Tween 20 buffer. Biotinylated BTN ectodomains were immobilized to 1,500-2,000 resonance units (RU) on a Biacore sensor chip SA pre-immobilized with streptavidin. Soluble BTN molecules or G115 γδTCR were two-fold serially diluted and simultaneously injected over test and control surfaces at a rate of 30 μl/min.

B1: soluble BTN2A1 ectodomain lacking Cys247 (monomeric) (ligand)
chain: QFIVVGPTDPILATVGENTTLRCHLSPEKNAEDMEVRWFRSQFSPAVFVYKGGRERTEEQMEEYRGRTTFVSKDISRGSVALVIHNITAQENGTYRCYFQEGRSYDEAILHLVVAGLGSKPLISMRGHEDGGIRLECISRGWYPKPLTVWRDPYGGVAPALKEVSMPDADGLFMVTTAVIIRDKSVRNMSCSINNTLLGQKKESVIFIPESFMPSVSP
notes: C-terminal biotin ligase (AviTag) and His6 tags; Used as SPR analyte and in crystals; also called monomeric BTN2A1 ectodomain; full-length BTN2A1 ectodomain
Take B1: the binding result in assay [1] is given as “no binding”. Further, the Kd in assay [2] was approximately 1800 µM.

As for B2, in assay [3], binding was put at a Kd of 500 µM.

B3: monomeric BTN3A1 IgV domain (ligand)
chain: not shown
Molecule B3 displayed a Kd in assay [4] of 1100 µM. Moreover, the binding result in assay [5] is listed as “no binding (tested: 1,590 µM)”.

For orientation: Kd means the constant that tells how readily two partners part at equilibrium. A lower Kd goes with higher affinity.

Values taken from patent publication US20250179144A1 (UNIVERSITY OF MELBOURNE, published 2025).
